The record followed here is patent US20190112348A1.

In test [1] the target is purified recombinant human insulin receptor (either with or without exon 11) (human) (UniProt P06213). Nature of the test: SPA competition vs A14Tyr[125I]-human insulin on recombinant human insulin receptor, relative to human insulin, 4.5% HSA in buffer.
Test [2] shares this target. The experiment in a line: SPA competition vs A14Tyr[125I]-human insulin on recombinant human insulin receptor, relative to human insulin, 0% HSA.

purified recombinant human insulin receptor (either with or without exon 11) (human), sequence (P06213 other isoform, or with tags, fused parts or gaps limits assumed, form in doubt): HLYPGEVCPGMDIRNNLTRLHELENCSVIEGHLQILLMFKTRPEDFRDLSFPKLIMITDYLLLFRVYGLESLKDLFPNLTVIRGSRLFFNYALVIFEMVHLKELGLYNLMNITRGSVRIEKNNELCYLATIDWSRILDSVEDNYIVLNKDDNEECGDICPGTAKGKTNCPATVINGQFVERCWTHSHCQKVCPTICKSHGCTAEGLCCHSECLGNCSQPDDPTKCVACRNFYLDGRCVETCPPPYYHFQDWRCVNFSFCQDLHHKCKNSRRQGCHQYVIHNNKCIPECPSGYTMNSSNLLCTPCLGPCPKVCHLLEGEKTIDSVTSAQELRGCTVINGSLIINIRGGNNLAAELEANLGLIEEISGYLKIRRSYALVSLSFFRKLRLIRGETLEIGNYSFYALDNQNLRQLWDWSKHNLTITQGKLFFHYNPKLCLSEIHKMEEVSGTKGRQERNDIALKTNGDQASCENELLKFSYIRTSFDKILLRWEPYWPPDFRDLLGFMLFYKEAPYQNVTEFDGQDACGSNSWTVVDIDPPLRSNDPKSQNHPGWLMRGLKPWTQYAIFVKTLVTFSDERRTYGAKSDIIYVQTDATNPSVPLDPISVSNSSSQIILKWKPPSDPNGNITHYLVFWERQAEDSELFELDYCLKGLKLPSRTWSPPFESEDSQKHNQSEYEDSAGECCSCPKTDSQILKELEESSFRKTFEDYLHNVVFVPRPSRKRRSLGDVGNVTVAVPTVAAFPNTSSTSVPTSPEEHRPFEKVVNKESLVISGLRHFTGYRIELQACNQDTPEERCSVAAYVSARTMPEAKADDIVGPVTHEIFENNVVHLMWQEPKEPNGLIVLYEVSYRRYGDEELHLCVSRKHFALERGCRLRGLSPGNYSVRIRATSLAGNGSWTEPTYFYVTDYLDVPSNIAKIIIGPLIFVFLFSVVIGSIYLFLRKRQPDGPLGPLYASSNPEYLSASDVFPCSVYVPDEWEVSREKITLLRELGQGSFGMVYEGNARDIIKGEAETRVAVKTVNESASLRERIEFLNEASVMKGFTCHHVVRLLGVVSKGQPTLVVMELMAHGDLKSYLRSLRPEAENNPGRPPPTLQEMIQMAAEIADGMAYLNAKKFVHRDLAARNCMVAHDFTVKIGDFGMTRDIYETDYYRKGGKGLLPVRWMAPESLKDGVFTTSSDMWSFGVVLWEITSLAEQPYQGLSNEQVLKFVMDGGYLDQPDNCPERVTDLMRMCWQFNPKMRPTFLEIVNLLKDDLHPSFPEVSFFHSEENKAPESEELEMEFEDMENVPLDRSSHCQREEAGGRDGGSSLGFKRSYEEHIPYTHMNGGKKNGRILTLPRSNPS

For “A14E, B25H, B27K(N^εOctadecanedioyl-γGlu-OEG-OEG), desB28, desB29, desB30 Human Insulin (from UniProt P01308 90-110; P01308 25-51) (ligand)”, the Relative IR-A affinity (@ 4.5% HSA) in test [1] amounted to 0.08%. For the same substance, in test [2], the Relative IR-A affinity (@ 0% HSA) turned out to be 1.9%.

On to “A14E, B25H, desB27, B29K(N^εOctadecanedioyl-γGlu-OEG-OEG), desB30 Human Insulin (from UniProt P01308 90-110; P01308 25-50; P01308 52-53) (ligand)”, for which the Relative IR-A affinity (@ 0% HSA) in test [2] amounted to 2.5%.
